Laboratory results taken from US20250304718A1, “HER2 SINGLE DOMAIN ANTIBODY AND USES THEREOF” (Institut Curie, priority 2024, published 2025).

B1: humanized anti-HER2 single domain antibody (sdAb) of the invention (VHH)
VHH: EVQLVESGGGLVQPGGSLRLSCAASGAFYKAYNMGWVRQAPGKGLEWVSAISATQGKWVYYADSVKGRFTISRDNSKNTVYLQMNSLRAEDTAVYYCAKLPISKKALYRGQGTLVTVSS
notes: Synthetic humanized/human VH single domain antibody (not a camelid VHH), selected by phage display on SKBR3 cells; also called VH anti-Her2; human VH anti-HER2
B2: anti-HER2 sdAb: fully humanized anti-HER2 VH single domain antibody, SEQ ID NO:2, CDRs SEQ ID NO:7-9 (protein)
VHH: MAEVQLVESGGGLVQPGGSLRLSCAASGAFYKAYNMGWVRQAPGKGLEWVSAISATQGKWVYYADSVKGRFTISRDNSKNTVYLQMNSLRAEDTAVYYCAKLPISKKALYRGQGTLVTVSS

What was measured:
[1] = target: T1, Her2 recombinant ectodomain fused to a Rabbit Fc domain (human; rabbit, UniProt P04626 23-652); test: ELISA on recombinant Her2 ectodomain-Rabbit Fc
T1 construct: also called Her2 ectodomain-Rabbit Fc; not shown: Rabbit Fc domain

[2] = target: T2, HER2 (Receptor tyrosine-protein kinase erbB-2) on the surface of SKBR3 cells (human, UniProt P04626 23-1255); test: flow cytometry (FACS) on SKBR3 cells overexpressing HER2; MCF10A HER2-negative cells as control
T2 construct: Endogenous HER2 overexpressed on the SKBR3 breast tumor cell line; also called CD340
Protocol: (§1) From inventors humanized sdAb libraries, a phage display subtraction selection system was developed to identify sdAbs that selectively detect the surface of breast tumor cells. The SKBR3 target cell line was used because it overexpresses the HER2 protein on its surface, while the MCF10A cell line, derived from non-cancerous and HER2-negative mammary gland cells, was used to pre-adsorb the libraries. After 3 successive cycles of selection on these cell lines, sdAb clones were analyzed by flow cytometry (FACS) for their binding capacity on SKBR3 cells and MCF10A cells.

SKBR3 cells = test: FACS binding of sdAb on SKBR3 cells; conditions: SKBR3 overexpresses HER2 on its surface; data not shown
Protocol: as §1
(§2) A human VH anti-HER2 was selected for further experiments.

MCF10A cells = test: FACS binding of sdAb on MCF10A cells; conditions: MCF10A non-cancerous, HER2-negative; data not shown
Protocol: as §1, §2

[3] = target: T3, Her2 recombinant ectodomain fused to a Rabbit Fc domain (Homo sapiens, UniProt P04626); test: ELISA on Her2 recombinant ectodomain; assay type: binding; conditions: data not shown
T3 construct: validated by ELISA on Her2 recombinant ectodomain fused to a Rabbit Fc domain; Rabbit Fc domain
Description: The anti-HER2 sdAb was afterward validated by ELISA on Her2 recombinant ectodomain fused to a Rabbit Fc domain (data not shown).

[4] = system: Jurkat-derived clone bearing a NFAT-YFP gene reporter; test: Reporter cell system for CAR-T cell activity (FACS); assay type: cell-based; conditions: sdAb in second generation CAR (CD8 TM, 4-1BB, CD3z)
Description: The anti-HER2 sdAb of the invention was also validated for use in CAR-T format. The model of CAR chosen is the one used to treat diffuse lymphomas (Linguanti F, Abenavoli E M, Berti V, Lopci E. Metabolic Imaging in B-Cell Lymphomas during CAR-T Cell Therapy. Cancers (Basel). 2022 Sep. 27; 14(19):4700. doi: 10.3390/cancers14194700. PMID: 36230629; PMCID: PMC9562671). This anti-lymphoma CAR-T therapy called “second generation” comprises the transmembrane domain of CD8, a costimulation domain from 4-1BB and the CD3z signaling domain. In the case of Kymriah® targeting B lymphocytes, the binding module is an anti-CD19 scFv. In the construction of the invention, the anti-CD19 scFv was replaced by the anti-Her2 sdAb of the invention.
The inventors developed a reporter cell system allowing to identify CAR-T cell activity. It is based on a Jurkat-derived clone bearing a NFAT-YFP gene reporter activated by TCR clustering (Blanchard N. et al, The Journal of Immunology, 2004).

| Molecule | binding result [1] | binding result [2] | recognition on SKBR3 cells in FACS (SKBR3 cells) | recognition on MCF10A cells in FACS (MCF10A cells) | validation by ELISA [3] | activation detected by FACS [4] |
| --- | --- | --- | --- | --- | --- | --- |
| B1 | binds | binds |  |  |  |  |
| B2 |  |  | specific recognition | not on MCF10A cells | validated | specific activation |
